Assay results published in US20200362300A1 (OSE IMMUNOTHERAPEUTICS, published 2020).
Each block holds one molecule with its values, some of them ahead of it.

Key:
[1] = target: human CD127 on human blood T cells (human) (UniProt P16871); test: flow cytometry on CD3+ cells of three human donors
[2] = target: CD127-Fc (Sino Biological) (UniProt P16871); test: SPR (Biacore), single cycle kinetics, CD127-Fc immobilised on CM5 chip, bivalent model
[3] = target: T1, CD127-Fc (Sino Biological) (UniProt P16871 21-239, limits assumed); test: as above
T1 construct: whole entry named; Immobilised by amine coupling on a CM5 chip; also called CD127 protein; not shown: Fc part of the bought fusion; not described
T1 sequence (looked up): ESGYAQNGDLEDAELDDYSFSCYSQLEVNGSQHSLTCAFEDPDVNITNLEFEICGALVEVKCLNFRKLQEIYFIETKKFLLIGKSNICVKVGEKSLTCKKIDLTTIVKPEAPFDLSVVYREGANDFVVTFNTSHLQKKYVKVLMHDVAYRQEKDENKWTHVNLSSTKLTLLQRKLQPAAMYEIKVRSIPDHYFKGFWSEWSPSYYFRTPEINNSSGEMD
Method: CD127-Fc was immobilized by amine coupling on a CM5 chip. The carboxylic groups were esterified by injection of an NHS/EDC mix for 7 min. The CD127-Fc proteins diluted to 20 μg/ml in Na acetate buffer pH 4.6 were injected until an SPR signal of 500 RU was obtained. Free reactive sites were inactivated by injection of 1 M ethanolamine pH8.5 for 10 min.
Antibodies were analyzed in Single Cycle Kinetics (SCK) on CD127 to determine kinetic and affinity parameters. The surface functionalized with CD127-Fc was regenerated between each cycle by injection of a 4 M MgCl 2 solution for 30 seconds.

mean fluorescence intensity [1]: 4140 MFI | Kd [2]: 0.0683 nM
Molecule: eBIORDR5 (CD127 Monoclonal Antibody, eBioscience from Invitrogen/Thermo Fisher Scientific catalog # 14-1278-82)

Kd [3]: 1.62 nM
B1: Effi3-VH3VL3 (antibody, V domains shown)
VH: AVQLVESGGGLVQPGGSLKITCAASGFTFTNAAMYWVRQAPGKGLEWVARIRTKANNYATYYADSVKGRFTISRDDSKSTVYLQMDSVKTEDTATYYCIVVVLTTTRDYFDYWGQGVLVTVSS
VL: DIVLTQSPSSLPVTPGEPASISCRSSQSLLTVKGITSLYWFLQKPGQSPKLLIYRMSNRDSGVPDRFSGSGSETDFTLKISRVEAEDVGTYYCAQFLEYPHTFGAGTKLELKR
notes: also called Effi3-VH3L3; Effi3 clone VH3VL3
